Experimental data from patent US20220048967A1 (published 2022).
Numbered stars: 1 amine (or outer) side, 2 acyl side, 3 side chain; on linkers, the order of the positions; unused ones are H or OH. Square brackets hold non-standard residues; d marks the D form. Side chains are listed from the residue outwards. Ends that are not written are not given here. * marks the point of attachment. C20 diacid = O=C(O)CCCCCCCCCCCCCCCCCCC(=O)*; αMePhe(2-F) = C[C@](N)(Cc1ccccc1F)C(=O)O; γGlu = O=C(O)[C@H](CCC(=O)[*:2])N[*:1]; αMeF = C[C@](N)(Cc1ccccc1)C(=O)O; AEEA = NCCOCCOCC(=O)O; Aib = CC(C)(N)C(=O)O

T1: human gastric inhibitory peptide receptor (GIPR) (human, UniProt P48546 22-466)
T1 sequence (looked up): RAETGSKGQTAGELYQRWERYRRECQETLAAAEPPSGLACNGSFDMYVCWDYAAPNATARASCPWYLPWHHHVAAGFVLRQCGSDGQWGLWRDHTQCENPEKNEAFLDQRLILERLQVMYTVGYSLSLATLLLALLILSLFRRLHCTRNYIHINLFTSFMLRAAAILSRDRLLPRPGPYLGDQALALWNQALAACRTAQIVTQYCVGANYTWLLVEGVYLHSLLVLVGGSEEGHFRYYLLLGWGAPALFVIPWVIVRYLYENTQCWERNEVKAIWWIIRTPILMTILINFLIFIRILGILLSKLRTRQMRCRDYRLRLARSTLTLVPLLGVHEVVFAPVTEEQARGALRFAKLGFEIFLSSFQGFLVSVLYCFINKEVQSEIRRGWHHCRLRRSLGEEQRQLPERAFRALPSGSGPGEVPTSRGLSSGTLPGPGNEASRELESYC

B1: Example 161 (peptide)
peptide: Y[Aib]EGT[αMePhe(2-F)]TSDHSI[αMeF]LDEK([AEEA-AEEA-γGlu-γGlu-C20 diacid])AQ[Aib]TFI[dE]YLIEGGPSSG-NH2
modifications: N-terminus assumed
SMILES: CC[C@H](C)[C@H](NC(=O)[C@H](CC(C)C)NC(=O)[C@H](Cc1ccc(O)cc1)NC(=O)[C@@H](CCC(=O)O)NC(=O)[C@@H](NC(=O)[C@H](Cc1ccccc1)NC(=O)[C@@H](NC(=O)C(C)(C)NC(=O)[C@H](CCC(N)=O)NC(=O)[C@H](C)NC(=O)[C@H](CCCCNC(=O)COCCOCCNC(=O)COCCOCCNC(=O)CC[C@H](NC(=O)CC[C@H](NC(=O)CCCCCCCCCCCCCCCCCCC(=O)O)C(=O)O)C(=O)O)NC(=O)[C@H](CCC(=O)O)NC(=O)[C@H](CC(=O)O)NC(=O)[C@H](CC(C)C)NC(=O)[C@](C)(Cc1ccccc1)NC(=O)[C@@H](NC(=O)[C@H](CO)NC(=O)[C@H](Cc1c[nH]cn1)NC(=O)[C@H](CC(=O)O)NC(=O)[C@H](CO)NC(=O)[C@@H](NC(=O)[C@](C)(Cc1ccccc1F)NC(=O)[C@@H](NC(=O)CNC(=O)[C@H](CCC(=O)O)NC(=O)C(C)(C)NC(=O)[C@@H](N)Cc1ccc(O)cc1)[C@@H](C)O)[C@@H](C)O)[C@@H](C)CC)[C@@H](C)O)[C@@H](C)CC)C(=O)N[C@@H](CCC(=O)O)C(=O)NCC(=O)NCC(=O)N1CCC[C@H]1C(=O)N[C@@H](CO)C(=O)N[C@@H](CO)C(=O)NCC(N)=O
B2: Example 162 (peptide)
peptide: Y[Aib]EGT[αMePhe(2-F)]TSDHSI[αMeF]LDEK([AEEA-AEEA-γGlu-γGlu-C20 diacid])AQ[Aib]TFI[dE]HLIEGGPSSG-NH2
modifications: N-terminus assumed
SMILES: CC[C@H](C)[C@H](NC(=O)[C@H](CC(C)C)NC(=O)[C@H](Cc1c[nH]cn1)NC(=O)[C@@H](CCC(=O)O)NC(=O)[C@@H](NC(=O)[C@H](Cc1ccccc1)NC(=O)[C@@H](NC(=O)C(C)(C)NC(=O)[C@H](CCC(N)=O)NC(=O)[C@H](C)NC(=O)[C@H](CCCCNC(=O)COCCOCCNC(=O)COCCOCCNC(=O)CC[C@H](NC(=O)CC[C@H](NC(=O)CCCCCCCCCCCCCCCCCCC(=O)O)C(=O)O)C(=O)O)NC(=O)[C@H](CCC(=O)O)NC(=O)[C@H](CC(=O)O)NC(=O)[C@H](CC(C)C)NC(=O)[C@](C)(Cc1ccccc1)NC(=O)[C@@H](NC(=O)[C@H](CO)NC(=O)[C@H](Cc1c[nH]cn1)NC(=O)[C@H](CC(=O)O)NC(=O)[C@H](CO)NC(=O)[C@@H](NC(=O)[C@](C)(Cc1ccccc1F)NC(=O)[C@@H](NC(=O)CNC(=O)[C@H](CCC(=O)O)NC(=O)C(C)(C)NC(=O)[C@@H](N)Cc1ccc(O)cc1)[C@@H](C)O)[C@@H](C)O)[C@@H](C)CC)[C@@H](C)O)[C@@H](C)CC)C(=O)N[C@@H](CCC(=O)O)C(=O)NCC(=O)NCC(=O)N1CCC[C@H]1C(=O)N[C@@H](CO)C(=O)N[C@@H](CO)C(=O)NCC(N)=O
B3: Example 160 (peptide)
peptide: YXEGTXTSDXSIXLDEKAQXTFIXYLIEGGPSSGAPPPS
modifications: Y-Aib-EGT-αMeF(2F)-TSD-Aib-SI-αMeF-LDEK((2-[2-(2-Amino-ethoxy)-ethoxy]-acetyl)2-(γ-Glu)-CO-(CH2)18-CO2H)AQ-Aib-TFI-(D-Glu)-YLIEGGPSSGAPPPS-NH2
B4: Example 164 (peptide)
peptide: YXEGTXTSDHSIXLDEKAQXTFIXYLIXGGPSSGAPPPS
modifications: Y-Aib-EGT-αMeF(2F)-TSDHSI-αMeF-LDEK((2-[2-(2-Amino-ethoxy)-ethoxy]-acetyl)2-(γ-Glu)-CO-(CH2)18-CO2H)AQ-Aib-TFI-(D-Glu)-YLI-(D-Glu)-GGPSSGAPPPS-NH2
B5: Example 154 (peptide)
peptide: Y[Aib]EGT[αMePhe(2-F)]TSDHSIXLDEKAQ[Aib]EFIEYLIEGGPSSGAPPPS-NH2
modifications: not fully specified (residues 13, 17); printed as Y-Aib-EGT-αMeF(2F)-TSDHSI-αMeF-LDEK((2-[2-(2-Amino-ethoxy)-ethoxy]-acetyl)2-(γ-Glu)-CO-(CH2)18-CO2H)AQ-Aib-EFIEYLIEGGPSSGAPPPS-NH2
B6: Example 163 (peptide)
peptide: H[Aib]EGT[αMePhe(2-F)]TSDYSI[αMeF]LDEK([AEEA-AEEA-γGlu-C20 diacid])AQ[Aib]EFIEYLIEGGPSSGAPPPS-NH2
modifications: N-terminus assumed
SMILES: CC[C@H](C)[C@H](NC(=O)[C@H](CC(C)C)NC(=O)[C@H](Cc1ccc(O)cc1)NC(=O)[C@H](CCC(=O)O)NC(=O)[C@@H](NC(=O)[C@H](Cc1ccccc1)NC(=O)[C@H](CCC(=O)O)NC(=O)C(C)(C)NC(=O)[C@H](CCC(N)=O)NC(=O)[C@H](C)NC(=O)[C@H](CCCCNC(=O)COCCOCCNC(=O)COCCOCCNC(=O)CC[C@H](NC(=O)CCCCCCCCCCCCCCCCCCC(=O)O)C(=O)O)NC(=O)[C@H](CCC(=O)O)NC(=O)[C@H](CC(=O)O)NC(=O)[C@H](CC(C)C)NC(=O)[C@](C)(Cc1ccccc1)NC(=O)[C@@H](NC(=O)[C@H](CO)NC(=O)[C@H](Cc1ccc(O)cc1)NC(=O)[C@H](CC(=O)O)NC(=O)[C@H](CO)NC(=O)[C@@H](NC(=O)[C@](C)(Cc1ccccc1F)NC(=O)[C@@H](NC(=O)CNC(=O)[C@H](CCC(=O)O)NC(=O)C(C)(C)NC(=O)[C@@H](N)Cc1c[nH]cn1)[C@@H](C)O)[C@@H](C)O)[C@@H](C)CC)[C@@H](C)CC)C(=O)N[C@@H](CCC(=O)O)C(=O)NCC(=O)NCC(=O)N1CCC[C@H]1C(=O)N[C@@H](CO)C(=O)N[C@@H](CO)C(=O)NCC(=O)N[C@@H](C)C(=O)N1CCC[C@H]1C(=O)N1CCC[C@H]1C(=O)N1CCC[C@H]1C(=O)N[C@@H](CO)C(N)=O
B7: Example 153 (peptide)
peptide: Y[Aib]EGT[αMePhe(2-F)]TSDYSIXLDEKAQ[Aib]EFIHYLIEGGPSSGAPPPS-NH2
modifications: not fully specified (residues 13, 17); printed as Y-Aib-EGT-αMeF(2F)-TSDYSI-αMeF-LDEK((2-[2-(2-Amino-ethoxy)-ethoxy]-acetyl)2-(γ-Glu)-CO-(CH2)18-CO2H)AQ-Aib-EFIHYLIEGGPSSGAPPPS-NH2
B8: Example 150 (peptide)
peptide: Y[Aib]EGT[αMePhe(2-F)]TSDYSIXLDEKAQ[Aib]EFISYLIEGGPSSGAPPPS-NH2
modifications: not fully specified (residues 13, 17); printed as Y-Aib-EGT-αMeF(2F)-TSDYSI-αMeF-LDEK((2-[2-(2-Amino-ethoxy)-ethoxy]-acetyl)2-(γ-Glu)-CO-(CH2)18-CO2H)AQ-Aib-EFISYLIEGGPSSGAPPPS-NH2
B9: Example 159 (peptide)
peptide: Y[Aib]EGT[αMePhe(2-F)]TSD[αMeF]SIXLDEKAQ[Aib]EFIEYLIEGGPSSGAPPPS-NH2
modifications: not fully specified (residues 13, 17); printed as Y-Aib-EGT-αMeF(2F)-TSD-αMeF-SI-αMeF-LDEK((2-[2-(2-Amino-ethoxy)-ethoxy]-acetyl)2-(γ-Glu)-CO-(CH2)18-CO2H)AQ-Aib-EFIEYLIEGGPSSGAPPPS-NH2
B10: Example 152 (peptide)
peptide: Y[Aib]EGT[αMePhe(2-F)]TSDYSIXLDEKAQ[Aib]EFI[Aib]YLIEGGPSSGAPPPS-NH2
modifications: not fully specified (residues 13, 17); printed as Y-Aib-EGT-αMeF(2F)-TSDYSI-αMeF-LDEK((2-[2-(2-Amino-ethoxy)-ethoxy]-acetyl)2-(γ-Glu)-CO-(CH2)18-CO2H)AQ-Aib-EFI-Aib-YLIEGGPSSGAPPPS-NH2
B11: Example 151 (peptide)
peptide: Y[Aib]EGT[αMePhe(2-F)]TSDYSIXLDEKAQ[Aib]EFIPYLIEGGPSSGAPPPS-NH2
modifications: not fully specified (residues 13, 17); printed as Y-Aib-EGT-αMeF(2F)-TSDYSI-αMeF-LDEK((2-[2-(2-Amino-ethoxy)-ethoxy]-acetyl)2-(γ-Glu)-CO-(CH2)18-CO2H)AQ-Aib-EFIPYLIEGGPSSGAPPPS-NH2

Key:
[1] = target: T1, human gastric inhibitory peptide …; assay: cell-based or functional assay
[2] = target: human GLP-1 receptor (GLP-1R) (human, UniProt P43220 24-463); assay: cell-based or functional assay

| Binder | hGIPR cAMP EC50 ratio [1] | hGIPR cAMP Rel EC50 [1] | hGLP1R cAMP EC50 ratio [2] | hGLP1R cAMP Rel EC50 [2] |
| --- | --- | --- | --- | --- |
| B1 | 0.706 | 0.254 nM | 0.0121 | 4.8 nM |
| B2 | 0.0393 | 4.56 nM | 0.00161 | 36 nM |
| B3 | 0.00712 | 21 nM | 1.24 | 0.0461 nM |
| B4 | 0.0581 | 3.09 nM | 0.00373 | 15.6 nM |
| B5 | 5.9 | 0.0266 nM | 1.23 | 0.0393 nM |
| B6 | 1.29 | 0.121 nM | 1.54 | 0.0316 nM |
| B7 | 1.7 | 0.0634 nM | 0.501 | 0.0904 nM |
| B8 | 2.64 | 0.0511 nM | 0.79 | 0.0575 nM |
| B9 | 0.039 | 4.6 nM | 0.176 | 0.33 nM |
| B10 | 2.57 | 0.0504 nM | 0.484 | 0.0915 nM |
| B11 | 0.262 | 0.41 nM | 0.0278 | 1.6 nM |
